Assay results as given in patent US20140105889A1 (published 2014).

T1: human FcγRIIb (human, UniProt P31994 43-217)
T1 construct: also called FcγIIB; FcγRIIb extracellular region
T1 sequence: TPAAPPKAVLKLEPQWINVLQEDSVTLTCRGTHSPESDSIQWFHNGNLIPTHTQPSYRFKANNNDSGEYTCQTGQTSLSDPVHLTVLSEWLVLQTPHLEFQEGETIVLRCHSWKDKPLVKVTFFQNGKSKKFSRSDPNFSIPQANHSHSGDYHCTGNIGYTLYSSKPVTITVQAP

T2: human FcγRIIa type R (human, UniProt P12318 36-217)
T2 construct: also called Fcγ RIIaR; FcγRIIa(R)
T2 chain: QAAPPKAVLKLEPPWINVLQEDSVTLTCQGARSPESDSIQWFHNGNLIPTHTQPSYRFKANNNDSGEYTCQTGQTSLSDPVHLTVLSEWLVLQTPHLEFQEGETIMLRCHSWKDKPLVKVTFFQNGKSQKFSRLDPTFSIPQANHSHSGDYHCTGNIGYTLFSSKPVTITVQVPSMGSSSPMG

T3: human FcγRIIb (human, UniProt P31994 43-217, limits assumed)
T3 construct: also called FcγIIB; hFcgRIIb
T3 sequence: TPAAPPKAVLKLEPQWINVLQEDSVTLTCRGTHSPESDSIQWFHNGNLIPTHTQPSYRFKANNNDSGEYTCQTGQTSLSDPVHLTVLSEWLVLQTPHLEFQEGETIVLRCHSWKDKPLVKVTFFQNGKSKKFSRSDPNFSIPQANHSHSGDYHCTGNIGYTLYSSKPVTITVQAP


What was measured:
[1] = molecular target: T1, human FcγRIIb; test: SPR (Biacore), antibody captured on chip, FcγR as analyte; binding amount divided by that of IL6R-F652/IL6R-L, times 100
[2] = molecular target: T2, human FcγRIIa type R; test: as above
[3] = molecular target: T3, human FcγRIIb; test: ratio of this variant's SPR KD for FcγRIIaR to its KD for FcγRIIb
Text: (§1) Furthermore, KD(IIaR)/KD(IIb) and KD(IIaH)/KD(IIb) in the table respectively represent the value obtained by dividing the KD value of each variant for FcγRIIaR by the KD value of each variant for FcγRIIb, and the value obtained by dividing the KD value of each variant for FcγRIIaH by the KD value of each variant for FcγRIIb.

[4] = molecular target: T3, human FcγRIIb; test: ratio of this variant's SPR KD for FcγRIIaH to its KD for FcγRIIb
Text: as §1

Row | relative binding activity for FcγRIIb [1] | relative binding activity for FcγRIIaR [2] | KD (IIaR)/KD (IIb) [3] | KD (IIaH)/KD (IIb) [4] | Binder
1 | 112 % of the binding amount of IL6R-F652/IL6R-L | 268 % of the binding amount of IL6R-F652/IL6R-L | – | – | IL6R-PD086/IL6R-L (antibody, human IgG1, PD variant: P238D/G237L introduced into IL6R-F11 (EU numbering); copies: 2 + 2) heavy: QVQLQESGPGLVKPSETLSLTCAVSGHSISHDHAWSWVRQPPGEGLEWIGFISYSGITNYNPSLQGRVTISRDNSKNTLYLQMNSLRAEDTAVYYCARSLARTTAMDYWGEGTLVTVSSASTKGPSVFPLAPSSKSTSGGTAALGCLVKDYFPEPVTVSWNSGALTSGVHTFPAVLQSSGLYSLSSVVTVPSSSLGTQTYICNVNHKPSNTKVDKKVEPKSCDKTHTCPPCPAPELLGLDSVFLFPPKPKDTLYISRTPEVTCVVVDVSHEDPEVKFNWYVDGVEVHNAKTKPREEQYNSTYRVVSVLTVLHQDWLNGKEYKCKVSNKALPAPIEKTISKAKGQPREPQVYTLPPSRDELTKNQVSLTCLVKGFYPSDIAVEWESNGQPENNYKTTPPVLDSDGSFFLYSKLTVDKSRWQQGNVFSCSVMHEALHYHYTQKSLSLSP light: DIQMTQSPSSLSASVGDRVTITCRASQDISSYLNWYQQKPGKAPKLLIYYTSRLHSGVPSRFSGSGSGTDFTFTISSLQPEDIATYYCQQGNTLPYTFGQGTKVEIK
2 | 139 % of the binding amount of IL6R-F652/IL6R-L | 844 % of the binding amount of IL6R-F652/IL6R-L | – | – | IL6R-PD097/IL6R-L (antibody, human IgG1, PD variant: P238D/S239D introduced into IL6R-F11 (EU numbering); copies: 2 + 2) heavy: QVQLQESGPGLVKPSETLSLTCAVSGHSISHDHAWSWVRQPPGEGLEWIGFISYSGITNYNPSLQGRVTISRDNSKNTLYLQMNSLRAEDTAVYYCARSLARTTAMDYWGEGTLVTVSSASTKGPSVFPLAPSSKSTSGGTAALGCLVKDYFPEPVTVSWNSGALTSGVHTFPAVLQSSGLYSLSSVVTVPSSSLGTQTYICNVNHKPSNTKVDKKVEPKSCDKTHTCPPCPAPELLGGDDVFLFPPKPKDTLYISRTPEVTCVVVDVSHEDPEVKFNWYVDGVEVHNAKTKPREEQYNSTYRVVSVLTVLHQDWLNGKEYKCKVSNKALPAPIEKTISKAKGQPREPQVYTLPPSRDELTKNQVSLTCLVKGFYPSDIAVEWESNGQPENNYKTTPPVLDSDGSFFLYSKLTVDKSRWQQGNVFSCSVMHEALHYHYTQKSLSLSP light: DIQMTQSPSSLSASVGDRVTITCRASQDISSYLNWYQQKPGKAPKLLIYYTSRLHSGVPSRFSGSGSGTDFTFTISSLQPEDIATYYCQQGNTLPYTFGQGTKVEIK
3 | – | – | 17.5 | 55.5 | IL6R-BP130/IL6R-L (antibody, human IgG1, copies: 2 + 2) heavy: QVQLQESGPGLVKPSETLSLTCAVSGHSISHDHAWSWVRQPPGEGLEWIGFISYSGITNYNPSLQGRVTISRDNSKNTLYLQMNSLRAEDTAVYYCARSLARTTAMDYWGEGTLVTVSSASTKGPSVFPLAPSSKSTSGGTAALGCLVKDYFPEPVTVSWNSGALTSGVHTFPAVLQSSGLYSLSSVVTVPSSSLGTQTYICNVNHKPSNTKVDKKVEPKSCDKTHTCPPCPAPDLLGGDSVFLFPPKPKDTLMISRTPEVTCVVVDVSHEDPEVKFNWYVDGVEVHNAKTKPREEQYNSTYRVVSVLTVLHQDWLNGKEYKCKMSNKALPKPIEKTISKAKGQPREPQVYTLPPSRDELTKNQVSLTCLVKGFYPSDIAVEWESNGQPENNYKTTPPVLDSDGSFFLYSKLTVDKSRWQQGNVFSCSVMHEALHNHYTQESLSLSP light: DIQMTQSPSSLSASVGDRVTITCRASQDISSYLNWYQQKPGKAPKLLIYYTSRLHSGVPSRFSGSGSGTDFTFTISSLQPEDIATYYCQQGNTLPYTFGQGTKVEIK
4 | – | – | 13.3 | 106 | IL6R-BP088/IL6R-L (antibody, human IgG1, copies: 2 + 2) heavy: QVQLQESGPGLVKPSETLSLTCAVSGHSISHDHAWSWVRQPPGEGLEWIGFISYSGITNYNPSLQGRVTISRDNSKNTLYLQMNSLRAEDTAVYYCARSLARTTAMDYWGEGTLVTVSSASTKGPSVFPLAPSSKSTSGGTAALGCLVKDYFPEPVTVSWNSGALTSGVHTFPAVLQSSGLYSLSSVVTVPSSSLGTQTYICNVNHKPSNTKVDKKVEPKSCDKTHTCPPCPAPELLGDDSVFLFPPKPKDTLMISRTPEVTCVVVDVSHEDPEVKFNWYVDGVEVHNAKTKPREEQYNSTYRVVSVLTVLHQDWLNGKEYKCKVSNAALPKPIEKTISKAKGQPREPQVYTLPPSRDELTKNQVSLTCLVKGFYPSDIAVEWESNGQPENNYKTTPPVLDSDGSFFLYSKLTVDKSRWQQGNVFSCSVMHEALHNHYTQESLSLSP light: DIQMTQSPSSLSASVGDRVTITCRASQDISSYLNWYQQKPGKAPKLLIYYTSRLHSGVPSRFSGSGSGTDFTFTISSLQPEDIATYYCQQGNTLPYTFGQGTKVEIK
5 | 122 % of the binding amount of IL6R-F652/IL6R-L | 593 % of the binding amount of IL6R-F652/IL6R-L | – | – | IL6R-PD094/IL6R-L (antibody, human IgG1, PD variant: P238D/G237W introduced into IL6R-F11 (EU numbering); copies: 2 + 2) heavy: QVQLQESGPGLVKPSETLSLTCAVSGHSISHDHAWSWVRQPPGEGLEWIGFISYSGITNYNPSLQGRVTISRDNSKNTLYLQMNSLRAEDTAVYYCARSLARTTAMDYWGEGTLVTVSSASTKGPSVFPLAPSSKSTSGGTAALGCLVKDYFPEPVTVSWNSGALTSGVHTFPAVLQSSGLYSLSSVVTVPSSSLGTQTYICNVNHKPSNTKVDKKVEPKSCDKTHTCPPCPAPELLGWDSVFLFPPKPKDTLYISRTPEVTCVVVDVSHEDPEVKFNWYVDGVEVHNAKTKPREEQYNSTYRVVSVLTVLHQDWLNGKEYKCKVSNKALPAPIEKTISKAKGQPREPQVYTLPPSRDELTKNQVSLTCLVKGFYPSDIAVEWESNGQPENNYKTTPPVLDSDGSFFLYSKLTVDKSRWQQGNVFSCSVMHEALHYHYTQKSLSLSP light: DIQMTQSPSSLSASVGDRVTITCRASQDISSYLNWYQQKPGKAPKLLIYYTSRLHSGVPSRFSGSGSGTDFTFTISSLQPEDIATYYCQQGNTLPYTFGQGTKVEIK
6 | 109 % of the binding amount of IL6R-F652/IL6R-L | 196 % of the binding amount of IL6R-F652/IL6R-L | – | – | IL6R-PD087/IL6R-L (antibody, human IgG1, PD variant: P238D/G237M introduced into IL6R-F11 (EU numbering); copies: 2 + 2) heavy: QVQLQESGPGLVKPSETLSLTCAVSGHSISHDHAWSWVRQPPGEGLEWIGFISYSGITNYNPSLQGRVTISRDNSKNTLYLQMNSLRAEDTAVYYCARSLARTTAMDYWGEGTLVTVSSASTKGPSVFPLAPSSKSTSGGTAALGCLVKDYFPEPVTVSWNSGALTSGVHTFPAVLQSSGLYSLSSVVTVPSSSLGTQTYICNVNHKPSNTKVDKKVEPKSCDKTHTCPPCPAPELLGMDSVFLFPPKPKDTLYISRTPEVTCVVVDVSHEDPEVKFNWYVDGVEVHNAKTKPREEQYNSTYRVVSVLTVLHQDWLNGKEYKCKVSNKALPAPIEKTISKAKGQPREPQVYTLPPSRDELTKNQVSLTCLVKGFYPSDIAVEWESNGQPENNYKTTPPVLDSDGSFFLYSKLTVDKSRWQQGNVFSCSVMHEALHYHYTQKSLSLSP light: DIQMTQSPSSLSASVGDRVTITCRASQDISSYLNWYQQKPGKAPKLLIYYTSRLHSGVPSRFSGSGSGTDFTFTISSLQPEDIATYYCQQGNTLPYTFGQGTKVEIK
7 | 124 % of the binding amount of IL6R-F652/IL6R-L | 543 % of the binding amount of IL6R-F652/IL6R-L | – | – | IL6R-PD095/IL6R-L (antibody, human IgG1, PD variant: P238D/G237Y introduced into IL6R-F11 (EU numbering); copies: 2 + 2) heavy: QVQLQESGPGLVKPSETLSLTCAVSGHSISHDHAWSWVRQPPGEGLEWIGFISYSGITNYNPSLQGRVTISRDNSKNTLYLQMNSLRAEDTAVYYCARSLARTTAMDYWGEGTLVTVSSASTKGPSVFPLAPSSKSTSGGTAALGCLVKDYFPEPVTVSWNSGALTSGVHTFPAVLQSSGLYSLSSVVTVPSSSLGTQTYICNVNHKPSNTKVDKKVEPKSCDKTHTCPPCPAPELLGYDSVFLFPPKPKDTLYISRTPEVTCVVVDVSHEDPEVKFNWYVDGVEVHNAKTKPREEQYNSTYRVVSVLTVLHQDWLNGKEYKCKVSNKALPAPIEKTISKAKGQPREPQVYTLPPSRDELTKNQVSLTCLVKGFYPSDIAVEWESNGQPENNYKTTPPVLDSDGSFFLYSKLTVDKSRWQQGNVFSCSVMHEALHYHYTQKSLSLSP light: DIQMTQSPSSLSASVGDRVTITCRASQDISSYLNWYQQKPGKAPKLLIYYTSRLHSGVPSRFSGSGSGTDFTFTISSLQPEDIATYYCQQGNTLPYTFGQGTKVEIK
8 | – | – | 17.1 | 89.9 | IL6R-BP086/IL6R-L (antibody, human IgG1, copies: 2 + 2) heavy: QVQLQESGPGLVKPSETLSLTCAVSGHSISHDHAWSWVRQPPGEGLEWIGFISYSGITNYNPSLQGRVTISRDNSKNTLYLQMNSLRAEDTAVYYCARSLARTTAMDYWGEGTLVTVSSASTKGPSVFPLAPSSKSTSGGTAALGCLVKDYFPEPVTVSWNSGALTSGVHTFPAVLQSSGLYSLSSVVTVPSSSLGTQTYICNVNHKPSNTKVDKKVEPKSCDKTHTCPPCPAPELLGGDSVFLFPPKPKDTLMISRTPEVTCVVVDVSHEDPEVKFNWYVDGVEVHNAKTKPREEQYNSTYRVVSVLTVLHQDWLNGKEYKCKVSNAALPKPIEKTISKAKGQPREPQVYTLPPSRDELTKNQVSLTCLVKGFYPSDIAVEWESNGQPENNYKTTPPVLDSDGSFFLYSKLTVDKSRWQQGNVFSCSVMHEALHNHYTQESLSLSP light: DIQMTQSPSSLSASVGDRVTITCRASQDISSYLNWYQQKPGKAPKLLIYYTSRLHSGVPSRFSGSGSGTDFTFTISSLQPEDIATYYCQQGNTLPYTFGQGTKVEIK
9 | – | – | 9.9 | 49.9 | IL6R-BP145/IL6R-L (antibody, human IgG1, copies: 2 + 2) heavy: QVQLQESGPGLVKPSETLSLTCAVSGHSISHDHAWSWVRQPPGEGLEWIGFISYSGITNYNPSLQGRVTISRDNSKNTLYLQMNSLRAEDTAVYYCARSLARTTAMDYWGEGTLVTVSSASTKGPSVFPLAPSSKSTSGGTAALGCLVKDYFPEPVTVSWNSGALTSGVHTFPAVLQSSGLYSLSSVVTVPSSSLGTQTYICNVNHKPSNTKVDKKVEPKSCDKTHTCPPCPAPEYLGDDSVFLFPPKPKDTLMISRTPEVTCVVVDVSHEDPEVKFNWYVDGVEVHNAKTKPREEQYNSTYRVVSVLTVLHQDWLNGKEYKCKVSNKALPAPIEKTISKAKGQPREPQVYTLPPSRDELTKNQVSLTCLVKGFYPSDIAVEWESNGQPENNYKTTPPVLDSDGSFFLYSKLTVDKSRWQQGNVFSCSVMHEALHNHYTQESLSLSP light: DIQMTQSPSSLSASVGDRVTITCRASQDISSYLNWYQQKPGKAPKLLIYYTSRLHSGVPSRFSGSGSGTDFTFTISSLQPEDIATYYCQQGNTLPYTFGQGTKVEIK
